Results published in patent publication US20140287419A1, “Compositions Having Dicamba Decarboxylase Activity and Methods of Use” (priority 2013, published 2014).

Tests used:
[1] = 14C assay with purified protein (14CO2 captured on Ca(OH)2 filter paper); type: biochemical; conditions: [14C]-carboxyl-labeled dicamba
[2] = Detection of 4-chloro-3-methoxy phenol product by LC-MS/MS; type: biochemical; conditions: purified protein
[3] = 14C assay with IPTG-induced recombinant E. coli cells (14CO2 capture from [14C]-carboxyl-labeled dicamba)
[4] = Detection of 2,5-DCA product by toluene capture or head-space GC/MS; type: biochemical; conditions: purified protein, toluene capturing
Protocol: Alternatively, dicamba decarboxylase activity can be monitored by measuring decarboxylation products other than CO2 using product detection methods. The decarboxylation product of dicamba, 2,5-dichloro anisole or 2,5-DCA (FIG. 1C), is a volatile compound with a flash point of 21° C. To capture this volatile compound for detection, 140 ul of toluene solution is added on top of 1 ml reaction mixture to form a trapping layer in a 1.5 ml eppendorf tube. […] The reaction is kept still at room temperature overnight before being vortex mixed and centrifuged at 14,000 rpm for 15 minutes. The top toluene phase is carefully removed using a micropipette and transferred into a 12×32 mm polypropylene vial (Vial 11 mm) from MicroLiter Analytical Supplies, Inc. (catalog number 11-5300-100). The vial is sealed with Crimp seal (11 mm with FEP/Nat Rubber) from MicroLiter Analytical Supplies, Inc. (catalog number 11-0020A) using a E-Z Crimper™ 11 mm from Wheaton Inc. 1 ul of the toluene mixture is taken from the sealed vials and injected in splitless mode into a GC/MS system for sample analysis (Agilent GC/MS system with a 6890A GC, a 5973N MSD and a CTC CombiPAL auto-sampler or with a 7890A GC, a 5975C MSD and an Agilent GC Sampler 80 auto-sampler). The GC parameters are: Agilent DB-5MS column (30 m length, 0.25 mm diameter, 0.25 um film) or equivalent; The GC inlet temperature, 250° C.; Carry gas, helium in constant flow mode (1.2 mL/min); The GC oven temperature program, initial temperature at 70° C. for 1 min, ramping to 200° C. at 15° C./min, and then ramping to 250° C. at 30° C./min. MS data acquisition is done in SIM (selected ion monitoring) mode, monitoring the positive ion at M/Z 176 for the molecular ion of […]. The solvent delay for MS acquisition is set at 4 min. Another method for detection of 2,5-DCA is a head-space GC/MS method. Briefly, reaction mixtures in 500 ul reaction volume are prepared in 1.5 ml×32 mm glass vials (Microliter Analytical Supplies, Cat#11-1200) for head space analysis. Glass vials are sealed with magnetic cap from MicroLiter Analytical Supplies, Inc. (catalog number 11-0030AT) using a E-Z Crimper™ 11 mm from Wheaton Industries Inc. The reaction is carried out at room temperature for various amount of time and stopped by heating at 95° C. for 5 min. The reaction vial is transferred to a agitator for incubation at 80° C. for 5 min at 500 rpm. With a syringe preheated at 80° C., 1000 uL of head space is injected with sample fill speed at 100 uL/sec. GC/MS parameters for headspace analysis are the same as for liquid sample analysis.

[5] = Dicamba decarboxylation activity of computationally designed protein variants; conditions: for Dicamba Decarboxylase Activity: native protein or designed variant versus parent
[6] = Detection of 2,5-DCP product by GC/MS; type: biochemical; conditions: purified protein
[7] = Enzyme kinetic characterization (kcat, KM, kcat/KM) by PEPC/MDH coupled enzyme assay or GC/MS measurement of 2,5-DCP
[8] = Saturation mutagenesis of SEQ ID NO:109, dicamba decarboxylation activity of point mutants
[9] = purified protein, substrate dicamba

Molecule | CO2 product [1] | 4-chloro-3-methoxy phenol product [2] | 2,5-DCA product [4] | Dicamba Decarboxylase Activity [5] | 2,5-DCP product [6] | also measured
SEQ ID NO:1: 2,6-Dihydroxybenzoate Decarboxylase, Rhizobium sp. MTP-10005 (protein, listed as Rhizobium sp.) MAQGKVALEEHFAIPETLQDSAGFVPGDYWKELQHRLLDIQDTRLKLMDAHGIETMILSLNAPAVQAIPDRRKAIEIARRANDVLAEECAKRPDRFLAFAALPLQDPDAATEELQRCVNDLGFVGALVNGFSQEGDGQTPLYYDLPQYRPFWGEVEKLDVPFYLHPRNPLPQDSRIYDGHPWLLGPTWAFAQETAVHALRLMASGLFDEHPRLNIILGHMGEGLPYMMWRIDHRNAWVKLPPRYPAKRRFMDYFNENFHITTSGNFRTQTLIDAILEIGADRILFSTDWPFENIDHASDWFNATSIAEADRVKIGRTNARRLFKLDGA | detected | detected | detected | native dicamba decarboxylase activity | detected | decarboxylation activity of dicamba ([3]; E. coli cell assay, 108 sequences tested): showed decarboxylation activity of dicamba
109 (protein, Dicamba decarboxylase variant clone DC.4.032) MAQGKVALEEHFAIPETLQDSAGFVPGDYWKELQHRLLDIQDTRLKLMDAHGIETMILSLNAPAVQAIPDRRKAIEIARRANDVLAEECAKRPDRFLAFAALPLQDPDAATEELQRCVNDLGFVGALVNGFSQEGDGQTPLYYDLPQYRPFWGEVEKLDVPFYLHPRNPLPQDSRIYDGHPWLLGPTWAFAQETAVHALRLMASGLFDEHPRLNIILGHMGEGLPYMMWRIDHRVAWVKLPPRYPAKRRFMDYFNENFHITTSGNFRTQTLIDAILEIGADRILFSTDWPFENIDHASDWFNATSIAEADRVKIGRTNARRLFKLDGA | – | – | – | – | – | Km [7, 9]: 4.66 mM; kcat [7, 9]: 0.000533 s⁻¹; Enzymatic Detection level ([3]; dicamba decarboxylation activity of the protein of the given SEQ ID NO): High; Dicamba Decarboxylation activity ([5]; Table 5, designed variants with improved activity): Yes; Percent Activity Improvement Over Parent (%) ([5]; parent SEQ ID NO:1 or SEQ ID NO:41 listed as 100): 234%
N61A: point mutation N61A of SEQ ID NO:109 (protein, Dicamba decarboxylase variant clone DC.4.032) MAQGKVALEEHFAIPETLQDSAGFVPGDYWKELQHRLLDIQDTRLKLMDAHGIETMILSLAAPAVQAIPDRRKAIEIARRANDVLAEECAKRPDRFLAFAALPLQDPDAATEELQRCVNDLGFVGALVNGFSQEGDGQTPLYYDLPQYRPFWGEVEKLDVPFYLHPRNPLPQDSRIYDGHPWLLGPTWAFAQETAVHALRLMASGLFDEHPRLNIILGHMGEGLPYMMWRIDHRVAWVKLPPRYPAKRRFMDYFNENFHITTSGNFRTQTLIDAILEIGADRILFSTDWPFENIDHASDWFNATSIAEADRVKIGRTNARRLFKLDGA | – | – | – | – | – | Average Activity (Fold of SEQ ID NO: 109) ([8]; dicamba decarboxylation activity of point mutants of SEQ ID NO: 109 (NNK saturation mutagenesis), relative to the unchanged template): 2.9 Fold of SEQ ID NO: 109; Average Activity (Fold of SEQ ID NO: 109) ([8]; dicamba decarboxylation activity of single point mutants of SEQ ID NO:109, relative to unchanged template): 2.9 Fold of SEQ ID NO: 109; KM compared with template SEQ ID NO:109 ([7]; FIG. 6): unchanged; kcat compared with template SEQ ID NO:109 ([7]; FIG. 6): 17 fold
SEQ ID NO:122: Design variant of SEQ ID NO: 100 (protein, Dicamba decarboxylase variant clone DC.12.103) MAIIDCHGHYTTTPKGVEDYRNAQKAAVAKDPSFKGEKGQVVVSDDEIRESIENNQLKMQRERGTDLTIFSPRSTAGGHHIGNEYTSQFWTEHQNDLIRRVCDLFPKNFAPVAQLPQSPGVDPAKSVPEIVRTVEQMGFIGINLNPDPSGGYWKDTSLADRAFYPIYEKMVEYDIPAMIHPRNACNDCFHTTGSHALGADTTGFQQLIMSDVFKDFPSLKIIIPHGGGAVPYHWGRFRGLMQDQGYAPLEESALKNIYFDTCVYHQRGIDLLLDIVPTQNILFASDMIGAVRGIDPETGHNFDDTKRYIDNNTALNAEEKAMIFEGNARRVFSRLKTD | not detected | not detected | detected | have dicamba decarboxylase activity | not detected | –
